For this assay, the target named is porcine PD-1 (programmed death 1) expressed on HEK293T cells (porcine). The experiment in a line: flow cytometry on cells; HEK293T cells transfected with pcDNA3.1-PD-1 (or empty vector) for 24 h; purified PD-L1-Fc added and incubated for 1 h; percent of positive cells read.

Data on one substance can be found in article PMC12752125.

porcine PD-L1-rabbit Fc fusion protein registered a percent of cells positive of 38.3%.
